Data published in patent US20220281976A1 (Alector, published 2022).

T1: mouse CD33 Fc fusion protein (mouse, UniProt Q63994 18-240, limits assumed)
T1 construct: also called mCD33-Fc
T1 sequence: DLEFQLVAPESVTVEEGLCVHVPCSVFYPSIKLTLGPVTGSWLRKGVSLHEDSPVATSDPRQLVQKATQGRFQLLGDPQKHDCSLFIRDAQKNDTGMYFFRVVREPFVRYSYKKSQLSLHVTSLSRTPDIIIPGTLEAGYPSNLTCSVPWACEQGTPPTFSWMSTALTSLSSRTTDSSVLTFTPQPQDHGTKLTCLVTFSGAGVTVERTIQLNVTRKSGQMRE


How the values were obtained:
human CD33 [1] = target: T2, human CD33 (human, UniProt P20138 18-364); test: flow cytometry, human primary dendritic cells;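 also: binding of anti-CD33 antibodies (10 ug/ml, 1 h on ice) to human primary dendritic cells, detected with a PE-labelled secondary antibody, reported as flow cytometry MFI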
T2 construct: CD33 on human primary dendritic cells, macrophages, monocytes and T cells and on CHO cells expressing recombinant human CD33; also called Siglec-3; hCD33
T2 sequence (P20138 18-364): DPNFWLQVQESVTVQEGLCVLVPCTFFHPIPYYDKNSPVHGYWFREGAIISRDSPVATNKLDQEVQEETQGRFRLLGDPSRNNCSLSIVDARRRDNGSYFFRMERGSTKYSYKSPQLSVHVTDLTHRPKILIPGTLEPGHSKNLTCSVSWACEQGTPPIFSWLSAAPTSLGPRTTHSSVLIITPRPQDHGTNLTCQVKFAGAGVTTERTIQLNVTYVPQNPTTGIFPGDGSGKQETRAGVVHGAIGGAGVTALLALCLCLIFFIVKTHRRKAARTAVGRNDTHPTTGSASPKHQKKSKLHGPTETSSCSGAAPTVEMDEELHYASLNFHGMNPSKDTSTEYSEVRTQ
Procedure: Initial characterization of CD33 antibodies involved determining their ability to bind CD33 expressed on a CHO cell line, on human primary monocytes, human primary macrophages, human primary dendritic cells, and on human primary T cells. Cells were harvested, plated at 10⁶/ml in a 96 well plate, and incubated in 100 ul PBS containing 2% FBS, 2 mM EDTA and 10 ug/ml Mab and Fc blocking reagent for 1 hour in ice. Cells were washed twice and incubated in 100 ul PBS containing 2% FBS, 2 mM EDTA and 5 ug/ml PE-conjugated secondary antibody for 30 minutes on ice. Cells were washed twice in cold PBS and analyze by flow cytometry on a BD FACS Canto. Data analysis and calculation of MFI values was performed with FlowJo (TreeStar) software version 10.0.7.

human CD33 [2] = target: T2, human CD33; test: flow cytometry, human primary macrophages;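 also: binding of CD33 antibodies at 10 µg/ml to human primary macrophages, 1 h on ice, detected with PE-labelled secondary antibody by flow cytometry, reported as MFI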
human CD33 [3] = target: T2, human CD33; test: flow cytometry, human primary T cells;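 also: binding of anti-CD33 antibodies at 10 ug/ml to human primary T cells, 1 h on ice, detected with PE-labelled secondary antibody, read as flow cytometry MFI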
[4] = target: T3, human monomeric His tagged CD33 protein (human, UniProt P20138 18-259); test: ForteBio BLI or MSD-SET, IgG, monomeric antigen;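 also: BLI: antibodies captured on AHQ sensors, 100 nM antigen association 5 min, dissociation 5 min, 1:1 fit. MSD-SET: antigen fixed at 50 pM, antibody titrated, quadratic fit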
T3 construct: also called hCD33-His
T3 sequence (P20138 18-259 limits assumed): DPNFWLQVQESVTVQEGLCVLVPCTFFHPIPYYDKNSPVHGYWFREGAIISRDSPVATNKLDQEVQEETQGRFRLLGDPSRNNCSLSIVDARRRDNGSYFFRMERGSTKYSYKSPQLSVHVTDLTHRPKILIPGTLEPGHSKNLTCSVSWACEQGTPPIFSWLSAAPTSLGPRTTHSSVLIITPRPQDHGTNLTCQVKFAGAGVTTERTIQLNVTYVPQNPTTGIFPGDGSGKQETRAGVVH

[5] = target: T4, human CD33 Fc fusion protein (human, UniProt P20138 18-259); test: ForteBio BLI or MSD-SET, IgG, avid;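 also: Anti-CD33 IgG affinity by BLI, IgG captured on AHQ sensors with antigen in solution and a one-to-one kinetic fit, or by MSD solution equilibrium titration with quadratic fit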
T4 construct: also called hCD33-Fc; human CD33/Fc chimera (R&D Systems)
T4 sequence (P20138 18-259 limits assumed): as above

human CD33 [6] = target: T2, human CD33; test: cell-based or functional assay
[7] = target: T4, human CD33 Fc fusion protein; test: RBC adhesion to plate-bound CD33-Fc; antibody 1.0 ug/ml;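 also: red blood cells adhering to plate-coated CD33-Fc after 1 h antibody pretreatment, then 1 h at room temperature, bound cells read as peroxidase activity after lysis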
Procedure: (§1) Briefly, 5 ug/ml CD33-Fc was coated overnight at RT in 96 well Immunolon plates, then washed with PBS, blocked for one hour with binding buffer (PBS containing %0.25 BSA 1 mM CaCl₂). CD33 antibodies (0.5 ug/ml or 1.0 ug/ml) or Fabs (25 ug/ml) were bound for one hour at RT with gentle rocking. After removal of unbound antibody, red blood cells were added to each well at a concentration of 3.0×10⁶ cells per ml and incubated at RT for one hour. Unbound RBCs were then carefully washed off 3× with PBS, and water was added to each well for hypotonic lysis of bound RBCs. The plate was transferred to −80° C. for 10 minutes, followed by 37° C. for 15 minutes. Bound RBCs were detected by peroxidase activity, followed by 2N sulfuric acid to stop the reaction.

[8] = target: T4, human CD33 Fc fusion protein; test: RBC adhesion to plate-bound CD33-Fc; antibody 0.5 ug/ml;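 also: Plate-coated CD33-Fc preincubated 1 h with antibody, then red blood cells added for 1 h at room temperature, adherent cells lysed and quantified via peroxidase activity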
Procedure: as §1

[9] = target: T1, mouse CD33 Fc fusion protein; test: ForteBio BLI or MSD-SET
human CD33 [10] = target: T2, human CD33; test: flow cytometry, human primary monocytes; parameters: reference not given here;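 also: binding of anti-CD33 antibodies at 10 ug/ml to human primary monocytes, 1 h on ice, detected by PE-labelled secondary antibody, flow cytometry readout as mean fluorescence intensity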

| Binder | DC MFI (human CD33 [1]) | Macrophage MFI (human CD33 [2]) | T cell MFI (human CD33 [3]) | Kd [4] [nM] | Kd [5] [nM] | Percent CD33 Surface Expression, DC % CD33 (human CD33 [6]) [%] | Percent CD33 Surface Expression, Monocyte % CD33 (human CD33 [6]) [%] | Percent RBC Binding to CD33 [7] [%] | Percent RBC Binding to CD33 [8] [%] | binding result [9] | Monocyte MFI (human CD33 [10]) | Percent CD33 Surface Expression, Macrophage % CD33 (human CD33 [6]) [%] |
| --- | --- | --- | --- | --- | --- | --- | --- | --- | --- | --- | --- | --- |
| C-45 (antibody, V domains shown, human IgG1) VH: not shown VL: DIQMTQSPSSVSASVGDRVTITCRASQGISSWLAWYQQKPGKAPKLLIYAASSLQSGVPSRFSGSGSGTDFTLTISSLQPEDFATYYCQQAYSFPTFGGGTKVEIK | 1150 | 1010 | 55.4 | 12.8 | 2.25 | 65.7 | 78.2 | 110 | 114 | no binding (tested: 100 nM) | 182 |  |
| C-57 (antibody, V domains shown, human IgG1) VH: EVQLVESGGGLVQPGGSLRLSCAASGFTFSSYSMNWVRQAPGKGLEWVSYISSSSSTIYYADSVKGRFTISRDNAKNSLYLQMNSLRAEDTAVYYCARGGEGRPYLDIWGQGTMVTVSS VL: not shown | 1490 | 867 | 234 | 7.67 | 1.8 | 20.7 | 37.1 | 10.6 | 15.8 | no binding (tested: 100 nM) | 162 | 41.8 |
| C-39 (antibody, V domains shown, human IgG1) VH: QLQLQESGPGLVKPSETLSLTCTVSGGSISSSSYYWGWIRQPPGKGLEWIGSIYYSGSTYYNPSLKSRVTISVDTSKNQFSLKLSSVTAADTAVYYCAREGVRGMDVWGQGTTVTVSS VL: EIVLTQSPGTLSLSPGERATLSCRASQSVSSSYLAWYQQKPGQAPRLLIYGASSRATGIPDRFSGSGSGTDFTLTISRLEPEDFAVYYCQQFAFLPPTFGGGTKVEIK | 2000 | 802 | 1210 | 9.97 | 2.06 | 22.8 | 27.2 | 5.11 | 12.5 | no binding (tested: 100 nM) | 181 | 46.5 |
| C-41 (antibody, V domains shown, human IgG1) VH: QLQLQESGPGLVKPSETLSLTCTVSGGSISSSSYYWGWIRQPPGKGLEWIGSISYSGSTYYNPSLKSRVTISVDTSKNQFSLKLSSVTAADTAVYYCAREGGKGMDVWGQGTLVTVSS VL: EIVLTQSPGTLSLSPGERATLSCRASQSVSSSFLAWYQQKPGQAPRLLIYGASSRATGIPDRFSGSGSGTDFTLTISRLEPEDFAVYYCQQFGDLPTFGGGTKVEIK | 1810 | 945 | 208 | 4.37 | 1.06 | 18.6 | 40.8 | 8.19 | 10.7 | no binding (tested: 100 nM) | 180 | 39.5 |
| C-5 (antibody, V domains shown, human IgG1) VH: not shown VL: EIVLTQSPGTLSLSPGERATLSCRASQSVSSSFLAWYQQKPGQAPRLLIYGASSRATGIPDRFSGSGSGTDFTLTISRLEPEDFAVYYCQQVSSFPPTFGGGTKVEIK | 1460 | 866 | 357 | 15.6 | 3.17 | 43.1 | 54.7 | 13.8 | 19.8 | no binding (tested: 100 nM) | 177 | 73.3 |
| C-40 (antibody, V domains shown, human IgG1) VH: EVQLVESGGGLVQPGGSLRLSCAASGFTFSSYWMSWVRQAPGKGLEWVANIKQDGSEKYYVDSVKGRFTISRDNAKNSLYLQMNSLRAEDTAVYYCAREGGYVGHGMDVWGQGTTVTVSS VL: not shown | 1470 | 663 | 210 | 10.6 | 1.86 | 17.8 | 24.2 | 12.1 | 19.7 | no binding (tested: 100 nM) | 76 | 35.2 |
| C-44 (antibody, V domains shown, human IgG1) VH: QLQLQESGPGLVKPSETLSLTCTVSGGSISSSSYAWGWIRQPPGKGLEWIGSIYYSGSTYYNPSLKSRVTISVDTSKNQFSLKLSSVTAADTAVYYCAREGYVAAYGMDVWGQGTTVTVSS VL: DIQMTQSPSSLSASVGDRVTITCRASQSISSYLNWYQQKPGKAPKLLIYAASSLQSGVPSRFSGSGSGTDFTLTISSLQPEDFATYYCQQAYYPPWTFGGGTKVEIK | 1520 | 892 | 310 | 2.62 | 0.612 | 14.7 | 24.8 | 10.5 | 13.3 | no binding (tested: 100 nM) | 161 | 57.3 |
| C-56 (antibody, V domains shown, human IgG1) VH: EVQLVESGGGLVQPGGSLRLSCAASGFTFSSYWMSWVRQAPGKGLEWVANIKQDGSEKYYVDSVKGRFTISRDNAKNSLYLQMNSLRAEDTAVYYCARDYGSVAGTPFDYWGQGTLVTVSS VL: DIQMTQSPSSLSASVGDRVTITCRASQSISSYLNWYQQKPGKAPKLLIYAASSLQSGVPSRFSGSGSGTDFTLTISSLQPEDFATYYCQQVLHTPLTFGGGTKVEIK | 1560 | 846 | 230 | 4.98 | 1.1 | 19.7 | 41.6 | 10.5 | 15.7 | no binding (tested: 100 nM) | 136 | 40 |
| C-43 (antibody, V domains shown, human IgG1) VH: QVQLVQSGAEVKKPGASVKVSCKASGYTFTSYYMHWVRQAPGQGLEWMGVINPSGGSTSYAQKFQGRVTMTRDTSTSTVYMELSSLRSEDTAVYYCAREEAVAADLGVDVWGQGTTVTVSS VL: not shown | 1500 | 908 | 192 | 9.04 | 2.06 | 24.5 | 34.9 | 8.99 | 13.8 | no binding (tested: 100 nM) | 151 | 42.5 |
| C-59 (antibody, V domains shown, human IgG1) VH: QVQLVQSGAEVKKPGASVKVSCKASGYTFTSYYMHWVRQAPGQGLEWMGVINPSGGSTSYAQKFQGRVTMTRDTSTSTVYMELSSLRSEDTAVYYCAREGANYDSSGLDAWGQGTLVTVSS VL: not shown | 1130 | 598 | 191 | 9.16 | 1.6 | 24.7 | 37.5 | 10.7 | 18.2 | no binding (tested: 100 nM) | 140 | 41.5 |
| C-24 (antibody, V domains shown, human IgG1) VH: QVQLVQSGAEVKKPGASVKVSCKASGYTFTSYYMHWVRQAPGQGLEWMGVINPSGGSTSYAQKFQGRVTMTRDTSTSTVYMELSSLRSEDTAVYYCARESQYYDVHGMDVWGQGTTVTVSS VL: DIQMTQSPSSLSASVGDRVTITCRASQSISSYLNWYQQKPGKAPKLLIYAASSLQSGVPSRFSGSGSGTDFTLTISSLQPEDFATYYCQQSVTPPLTFGGGTKVEIK | 1230 | 752 | 193 | 6.95 | 1.54 | 28.8 | 43.1 | 8.98 | 13 | no binding (tested: 100 nM) | 165 | 42.7 |
